Test results reported in PMC7337520, “NF90 modulates processing of a subset of human pri-miRNAs”.

Legend:
NF90 [1] = target: T1, NF90 (UniProt Q12906-2 1-702); experiment: EMSA; RNA EMSA as in ref 15; buffer, salt, pH and temperature not given; at least three replicates; details: protein: recombinant; label: radiolabel; hairpin
T1 sequence: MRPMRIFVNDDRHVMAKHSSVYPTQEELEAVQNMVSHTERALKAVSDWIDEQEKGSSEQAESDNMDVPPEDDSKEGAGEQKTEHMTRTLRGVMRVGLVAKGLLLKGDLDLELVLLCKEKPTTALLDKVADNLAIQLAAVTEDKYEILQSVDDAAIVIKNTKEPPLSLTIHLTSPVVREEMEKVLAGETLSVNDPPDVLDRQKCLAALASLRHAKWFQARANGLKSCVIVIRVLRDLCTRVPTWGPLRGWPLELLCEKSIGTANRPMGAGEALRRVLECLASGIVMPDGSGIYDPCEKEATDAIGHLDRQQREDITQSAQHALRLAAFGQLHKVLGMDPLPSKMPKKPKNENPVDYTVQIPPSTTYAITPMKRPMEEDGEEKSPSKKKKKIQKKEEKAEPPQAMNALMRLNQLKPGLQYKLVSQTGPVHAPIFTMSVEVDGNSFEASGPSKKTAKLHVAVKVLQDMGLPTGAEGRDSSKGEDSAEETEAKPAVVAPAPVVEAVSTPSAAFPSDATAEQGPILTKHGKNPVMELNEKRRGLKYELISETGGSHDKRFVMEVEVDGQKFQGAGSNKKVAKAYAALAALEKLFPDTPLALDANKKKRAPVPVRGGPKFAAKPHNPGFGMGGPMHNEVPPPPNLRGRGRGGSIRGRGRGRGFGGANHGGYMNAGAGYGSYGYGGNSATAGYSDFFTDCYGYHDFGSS

NF90 [2] = target: T1, NF90; experiment: EMSA; enhanced vs WT; band intensities only in figure; RNA EMSA as in ref 15; buffer, salt, pH and temperature not given; at least three replicates; details: protein: recombinant; label: radiolabel; hairpin

B1: pri-miR-186 WT (structured_RNA)
RNA: ACAGAACACCCAUCAUAUUCUUCCCAAACAUUUUUUCAUUGCUUGUAACUUUCCAAAGAAUUCUCCUUUUGGGCUUUCUGGUUUUAUUUUAAGCCCAAAGGUGAAUUUUUUGGGAAGUUUGAGCUAAAUUCCUUCAACCAAAAUAUACAAGUGAAGAAAAAAAAUUUGUAUUUAAACAUUUGCACAUUUACUUCUACCUGAAGCAUGUGAAUGUCAAC
binding result (NF90 [1]): binds

B2: pri-miR-3173 WT (structured_RNA)
RNA: CAUUGGAGGUCUAGGGCUUAUUUUCCAGAUAGAAUUGAGUCUUUGUUGGUCUUGGGCCAGCUUCCCUGCCCUGCCUGUUUUCUCCUUUGUGAUUUUAUGAGAACAAAGGAGGAAAUAGGCAGGCCAGGGAAACGAUCUCUCUCCCUCUCUUGUGCCGAGGAAGAACU
binding result (NF90 [1]): binds

B3: pri-miR-200a mutant #1 (structured_RNA)
RNA: CUGGCUGCUCACCGCUCCGGUUCUUCCCUGGGCUUCCACAGCAGCCCCUGCCUGCCUGGCGGGACCCCACGUCCCUCCCGGGCCCCUGUGAGCAUCUUACCGGACAGUGCUGGAUUUCCCAGCCUGUCUGGUAACGAUGUUCAAAGGUGACCCGCCGCUCGCCGGGGACACCACCGAGGCACAUC
binding result (NF90 [2]): binds
